Results on four molecules are retold here after patent US20250101126A1 (GO THERAPEUTICS, published 2025).

Positions count from the first letter of the chain named.

Assay [1] concerns the target T1, MUC4-Tn glycopeptide CTIPSTAMHTRSTAAPIPILP (SEQ ID NO:154) with O-linked GalNAc on the serine and threonine … (not fully specified; O-linked GalNAc on Ser 12 and Thr 13; N-terminal biotin (Table 6); C-terminal amide in the form described in the SPR/BLI methods).
T1 construct: Synthetic glycopeptide made by FMOC synthesis; also called MUC4 glycopeptide; Tn-glycosylated MUC4 peptide
T1 peptide: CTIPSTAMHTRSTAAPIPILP
Put plainly: SPR (Biacore); antibody immobilized, peptide as analyte. The text has this: Antibody affinity assays can be carried out using surface plasmon resonance (e.g., using a Biacore system (Cytiva)). In a surface plasmon resonance assay, one or more antibodies can be immobilized onto a biosensor and presented with an analyte (e.g., the glyco-MUC4 peptide […]-amide (the amino acid portion of which is SEQ ID NO:154; bold and underlined residues indicate GalNAc glycosylation sites) or a negative control analyte such as un unglycosylated MUC4 peptide ([…]-amide (the amino acid portion of which is SEQ ID NO:155)). The antibodies are contacted with different concentrations of the analyte, for example concentrations of 2.5 nM, 7.4 nM, 22 nM, 66 nM and 200 nM. Affinity is measured using multi-cycle kinetics in triplicate for each analyte concentration, with 1 min association and 5 min dissociation. […] The affinity is determined by fitting the binding curve to a specific model: kinetic fit (1:1 model) or if applicable heterogenous ligand binding model.
A general note: SPR reads the build-up and loss of mass on a sensor chip optically.

Assay [2] deals with MUC1-Tn. Description: BLI (Octet), apparent affinity; peptide on biosensor; error +/- 5.9 µM (r8c9). For orientation: In BLI a coated tip is dipped into the sample, and binding shifts an interference pattern.
Assay [3] concerns the target T1, MUC4-Tn glycopeptide …. Description: BLI (Octet), apparent affinity; peptide on biosensor; +/- error at 95% confidence; same value as Table 7.
In assay [4] the target is T1, MUC4-Tn glycopeptide …. Description: BLI (Octet), apparent affinity; peptide on biosensor; error +/- 0.251 nM at 95% confidence (r8c5).
The target of assay [5] is T2, Tn-glycosylated MUC4 on cells (MUC4-Tn; COSMC-KO cells, cancer tissue) (UniProt Q99102 29-5412, limits assumed, truncated Tn O-glycans (GalNAc-alpha1-O-Ser/Thr), from knock-out of the COSMC chaperone or in cancer tissue).
T2 construct: whole, on cells; also called Tn-MUC4; glyco-MUC4
Description: flow cytometry on T3M4 COSMC-KO (T3M4-M) cells. The method, then:
Adherent cells were dissociated with TrypLE select (Gibco) and washed from flask surface with cell culture media (RPMI w/L-glutamine, 1% PenStrep, & 10% FBS). Cells were washed several times by centrifugation at 300*g for 5 min at 4° C. followed by resuspension in PBS with 1% BSA (PBS/1% BSA). Cells were resuspended between 5×10⁵ cells/ml to 2×10⁶ cell/ml and then distributed into a 96 well U-bottom plate. Diluted commercial antibody (0.25-2 ug/ml), or purified humanized 2D5 candidates were added to T3M4 COSMC-KO cells and incubated for 1 hr on ice. Following several washes with PBS/1% BSA, cells were incubated for 30 min on ice with a 1:1600 dilution of AlexaFluor647 conjugated F(ab)₂ goat anti-human IgG Fcγ (JacksonImmunoResearch). Cells were washed again with PBS/1% BSA and then fixed in 1% formaldehyde in PBS/1% BSA. Cells were analysed on either a 2 or 4 laser Attune NXT flow cytometer. Data was processed in FlowJo Software.
(Flow cytometry measures light scatter and fluorescence of single cells or particles in a stream.)

In assay [6] the target is T1, MUC4-Tn glycopeptide …. Description: BLI (Octet), MUC4 glycopeptide on biosensor.
Assay [7] deals with MUC1-Tn. Put plainly: BLI (Octet), apparent affinity; peptide on biosensor; error +/- 7.6 µM (r10c9).
The target of assay [8] is T1, MUC4-Tn glycopeptide …. Put plainly: BLI (Octet), apparent affinity; peptide on biosensor; error +/- 2.32 nM (r10c5).
In assay [9] the target is T3, MUC4-Tn(T) peptide Biotin-CTIPSTAMHTRSTAAPIPILP (SEQ ID NO:198) (GalNAc on a threonine only (by the label Tn(T); the bold/underline marking of the site is lost in the text); N-terminal biotin).
T3 construct: Singly glycosylated form of the MUC4 peptide
T3 peptide: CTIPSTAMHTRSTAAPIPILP
Description: BLI (Octet), apparent affinity; peptide on biosensor; error printed as 1 pM (r10c7).

Assay [10] deals with T3, MUC4-Tn(T) peptide …. Description: BLI (Octet), apparent affinity; peptide on biosensor; error +/- 66 µM (r12c7).
In assay [11] the target is T1, MUC4-Tn glycopeptide …. Description: BLI (Octet), apparent affinity; peptide on biosensor; error +/- 10 nM (r12c5).
The target of assay [12] is MUC1-Tn. Put plainly: BLI (Octet), apparent affinity; peptide on biosensor; error +/- 3.7 µM (r12c9).

B1: 2D5.2F6.2C11 (antibody, V domains shown)
VH: QVQLQQSDAELVKPGASVRISCKAYGYTFTDHAIHWVKQKPEQGLEWLGYISPGNDDIQYNAKFKGKATLTADKSSSTAYMQLNSLTSDDSAVYFCKRSMANSFDYWGQGTTLTVSS
VL: NIMLTQSPSSLAVSAGEKVTMSCKSSQSVLYSSDQKNYLAWYQQKPGQSPKLLIYWASTRESGVPDRFTGSGSGTDFTLTISNVQAEDLAVYYCHQYLSSYTFGGGTKLEIK
notes: Murine monoclonal antibody from a hybridoma (Balb/c mice immunized with the KLH-conjugated Tn-MUC4 glycopeptide); also called mAb 2D5
For B1, the Kd turned out to be 3.96 nM in [1], 2900 nM in assay [2], 2 nM in [3] and 2 nM in assay [4].

B2: 2D5-cAb Chimeric antibody (human Fc domain + murine variable domain) (antibody, V domains shown)
VH: B1 VH
VL: B1 VL
In general, EC50 refers to the midpoint of the concentration-response curve. High values mean a less potent agent, low ones a more potent agent. Molecule B2 had an EC50 in assay [5] of 0.0177 µg/mL. This molecule also registered a Kd in [6] of 3.2 nM.

B3: 5B8.2A11.2C7 (antibody, V domains shown)
VH: QVQLQQSDAELVKPGASVKISCKASGYTFTDHAIHWVKQKPEQGLEWIGYFSPGNGDIKYNEKFKGKATLTADRSSSTANMHLNSLTSEDSAVYFCKRSMANYFDYWGQGTTLTVSS
VL: B1 VL with L4M, A12V, Q27H, D34N, R60K, E61N, N83S
notes: Murine monoclonal antibody from a hybridoma; also called mAb 5B8
Consider B3, for which the Kd in assay [1] is 3.93 nM; in assay [7] it was 2800 nM; in assay [8], 2.32 nM; in [9], 560 nM.

B4: 15F3.2D11.1E6 (antibody, V domains shown)
VH: B1 VH with K13E, R19K, K67R, Y106F
VL: B1 VL with Q85R
notes: Murine monoclonal antibody from a hybridoma; also called mAb 15F3
As to B4, the Kd in assay [1] worked out at 3.56 nM; in assay [10] it was 79000 nM; in assay [11] it was 50.2 nM; in [12] it was 2500 nM.
